We go through 1 protein from article PMC3812978 (The Journal of Cell Biology, 2013).

This data set deals with the molecule itself. Put plainly: AUC.

B1: nontagged Atg38 (recombinant) (natural protein, budding yeast, UniProt Q05789 1-226, looked up)
chain: MSTLAEVYTIIEDAEQECRKGDFTNAKAKYQEAIEVLGPQNENLSQNKLSSDVTQAIDLLKQDITAKIQELELLIEKQSSEENNIGMVNNNMLIGSVILNNKSPINGISNARNWDNPAYQDTLSPINDPLLMSILNRLQFNLNNDIQLKTEGGKNSKNSEMKINLRLEQFKKELVLYEQKKFKEYGMKIDEITKENKKLANEIGRLRERWDSLVESAKQRRDKQKN
As to B1, the “stoichiometry N” value stood at 2.

A word on the stoichiometry N: it is the number of molecules, sites or subunits per partner or assembly.
